Earlier results, collected in paper PMC2794832 (Journal of nuclear medicine : official publication, Society …, 2008).

Tested on: tumors of HEK cells stably transfected to express only SSTR2
Settings: mouse, in vivo

Substance: ^111In-1,4,7,10-tetraazacyclododecane-1,4,7,10-tetraacetic acid-sst2-ANT [^111In-DOTA-sst2-ANT]
- uptake of the radiopharmaceutical in tumors: high uptake
